Values quoted from earlier work in article PMC6704634.

Molecular target: EGFR isoform I (Homo sapiens) (UniProt P00533)

Substance: EGF (from UniProt P01133)
- Kd: 177 nM
